Assay results as given in IntAct's records for PubMed 29983246.

B1: Mitochondrial-derived peptide MOTS-c (Homo sapiens), A0A0C5B5G6 (parent)
chain: MRWQEMGYIFYPRKLR
partner: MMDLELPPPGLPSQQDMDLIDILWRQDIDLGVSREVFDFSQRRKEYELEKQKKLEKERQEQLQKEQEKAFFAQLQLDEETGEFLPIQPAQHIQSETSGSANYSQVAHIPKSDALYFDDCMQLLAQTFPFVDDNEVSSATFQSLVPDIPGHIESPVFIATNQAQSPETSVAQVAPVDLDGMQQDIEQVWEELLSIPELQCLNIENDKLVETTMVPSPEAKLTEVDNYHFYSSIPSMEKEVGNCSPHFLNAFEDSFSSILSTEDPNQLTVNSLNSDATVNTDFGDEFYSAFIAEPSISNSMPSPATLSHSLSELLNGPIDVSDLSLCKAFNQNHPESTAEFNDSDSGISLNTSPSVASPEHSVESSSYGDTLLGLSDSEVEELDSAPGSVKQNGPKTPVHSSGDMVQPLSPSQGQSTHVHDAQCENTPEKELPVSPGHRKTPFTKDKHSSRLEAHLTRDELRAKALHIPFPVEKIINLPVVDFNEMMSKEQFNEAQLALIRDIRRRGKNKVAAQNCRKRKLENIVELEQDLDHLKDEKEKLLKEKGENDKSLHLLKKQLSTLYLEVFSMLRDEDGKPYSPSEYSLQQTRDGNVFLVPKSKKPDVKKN

Variants of: B1
Details: with nf2l2_human NFE2L2, Q16236

Row | effect of a mutation on the interaction | Variant
1 | with no effect | MRWQEMGYIFYPAAAA [R13A;K14A;L15A;R16A]
